Measured values taken from patent US9028829B2, “Uniform field magnetization and targeting of therapeutic formulations” (The Children's Hospital of Philadelphia, priority 2004, dated 2015).

Tested on: Pronase
Assay: Protection of MNP-encapsulated catalase from proteolysis
Assay type: in vitro ADME
Settings: by 30 mins
Experimental: Protection and activity of MNP-encapsulated catalase. The capacity of MNP to protect the catalase cargo was measured using a proteolysis assay. Samples were incubated for 60 min at 37° C. with shaking in a 0.2 wt % buffered Pronase, a robust mixture of proteinases which completely digests proteins into individual amino acids. The amount of catalase retained by MNP post proteolysis was determined following MNP separation by centrifugation (20 min, 4° C. at […]) using the radioactivity assay described above. The enzymatic activity of MNP-bound catalase retained over time was measured in comparison with free catalase.

B1: free catalase: bovine liver catalase, not encapsulated (protein, UniProt P00432 2-527, looked up)
Catalase: ADNRDPASDQMKHWKEQRAAQKPDVLTTGGGNPVGDKLNSLTVGPRGPLLVQDVVFTDEMAHFDRERIPERVVHAKGAGAFGYFEVTHDITRYSKAKVFEHIGKRTPIAVRFSTVAGESGSADTVRDPRGFAVKFYTEDGNWDLVGNNTPIFFIRDALLFPSFIHSQKRNPQTHLKDPDMVWDFWSLRPESLHQVSFLFSDRGIPDGHRHMNGYGSHTFKLVNANGEAVYCKFHYKTDQGIKNLSVEDAARLAHEDPDYGLRDLFNAIATGNYPSWTLYIQVMTFSEAEIFPFNPFDLTKVWPHGDYPLIPVGKLVLNRNPVNYFAEVEQLAFDPSNMPPGIEPSPDKMLQGRLFAYPDTHRHRLGPNYLQIPVNCPYRARVANYQRDGPMCMMDNQGGAPNYYPNSFSAPEHQPSALEHRTHFSGDVQRFNSANDDNVTQVRTFYLKVLNEEQRKRLCENIAGHLKDAQLFIQKKAVKNFSDVHPEYGSRIQALLDKYNEEKPKNAVHTYVQHGSHLSAREKANL
catalase activity on exposure to proteolytic enzymes: total deactivation
